Test results reported in paper PMC8036949, “Investigation of the Interaction of Human Origin Recognition Complex Subunit 1 with G-Quadruplex DNAs of Human c-myc Promoter and Telomere Regions”.

Target: T1, hORC1(413-511) (Homo sapiens, UniProt Q13415 413-511)
T1 sequence: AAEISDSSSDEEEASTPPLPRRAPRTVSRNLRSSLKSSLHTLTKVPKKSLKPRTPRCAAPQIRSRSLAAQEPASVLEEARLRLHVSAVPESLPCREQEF
Assay: fluorescence anisotropy; 100 mM KCl; FA: 20 mM HEPES-KOH pH 7.7, 100 mM KCl (or LiCl), 1 mM EDTA, 1 mM DTT, 25 C, 2 uM DNA, 1:1 fit; NMR: same buffer with 10% D2O, 10 uM DSS, 75 uM DNA, 25 C
Conditions: protein: recombinant, tags: N-terminal GST (pGEX-6P-1) removed with PreScission protease

[1] = label: 5'-FAM, G4, multiple folds, 1 strand

TGAGGGTGGGGAGGGTGGGGAA (structured_DNA) [wtPu22] gave a Kd [1] of 166 nM.

In the case of TTGGGTTAGGGTTAGGGTTAGGGA (structured_DNA) [teloDNA], the Kd (label: 5'-FAM (FA), label in NMR not clear, (3+1) G4 in K+, 1 strand) is reported as 227 ± 23.6 nM.

B1: dsDNA (dsDNA)
DNA 1: AAATTTAAAAAAAAAAATAATT
DNA 2: AATTATTTTTTTTTTTAAATTT
In the case of B1, the Kd (label: 5'-FAM on strand 1, blunt) is reported as 1910 nM.

Binder TGGGGAGGGTGGGGAGGGT (structured_DNA) [wtPu19] has a Kd [1] of 45.2 nM.

Work on TGAGGGTGGGTAGGGTGGGTAA (structured_DNA) [mtPu22] yielded a Kd (label: 5'-FAM (FA), label in NMR not clear, parallel G4, 1 strand) of 310 ± 39.2 nM.

TAGGGAGGGTAGGGAGGGT (structured_DNA) [mtPu19] showed a Kd (label: 5'-FAM, parallel G4, 1 strand) of 446 ± 308 nM.
